Assay results reported in publication PMC4495445.

Assay: DAPI staining after 24 h in sporulation medium
Conditions: glycan lost; control: gda1Δ strain with wild-type GDA1

B1: Gda1p: N41D (protein)
parent chain: MAPIFRNYRFAIGAFAVIMLILLIKTSSIGPPSIARTVTPNASIPKTPEDISILPVNDEPGYLQDSKTEQNYPELADAVKSQTSQTCSEEHKYVIMIDAGSTGSRVHIYKFDVCTSPPTLLDEKFDMLEPGLSSFDTDSVGAANSLDPLLKVAMNYVPIKARSCTPVAVKATAGLRLLGDAKSSKILSAVRDHLEKDYPFPVVEGDGVSIMGGDEEGVFAWITTNYLLGNIGANGPKLPTAAVFDLGGGSTQIVFEPTFPINEKMVDGEHKFDLKFGDENYTLYQFSHLGYGLKEGRNKVNSVLVENALKDGKILKGDNTKTHQLSSPCLPPKVNATNEKVTLESKETYTIDFIGPDEPSGAQCRFLTDEILNKDAQCQSPPCSFNGVHQPSLVRTFKESNDIYIFSYFYDRTRPLGMPLSFTLNELNDLARIVCKGEETWNSVFSGIAGSLDELESDSHFCLDLSFQVSLLHTGYDIPLQRELRTGKKIANKEIGWCLGASLPLLKADNWKCKIQSA
- other: sporulation efficiency: no change

B2: Gda1p: N280D (protein)
parent chain: MAPIFRNYRFAIGAFAVIMLILLIKTSSIGPPSIARTVTPNASIPKTPEDISILPVNDEPGYLQDSKTEQNYPELADAVKSQTSQTCSEEHKYVIMIDAGSTGSRVHIYKFDVCTSPPTLLDEKFDMLEPGLSSFDTDSVGAANSLDPLLKVAMNYVPIKARSCTPVAVKATAGLRLLGDAKSSKILSAVRDHLEKDYPFPVVEGDGVSIMGGDEEGVFAWITTNYLLGNIGANGPKLPTAAVFDLGGGSTQIVFEPTFPINEKMVDGEHKFDLKFGDENYTLYQFSHLGYGLKEGRNKVNSVLVENALKDGKILKGDNTKTHQLSSPCLPPKVNATNEKVTLESKETYTIDFIGPDEPSGAQCRFLTDEILNKDAQCQSPPCSFNGVHQPSLVRTFKESNDIYIFSYFYDRTRPLGMPLSFTLNELNDLARIVCKGEETWNSVFSGIAGSLDELESDSHFCLDLSFQVSLLHTGYDIPLQRELRTGKKIANKEIGWCLGASLPLLKADNWKCKIQSA
- other: sporulation efficiency: no change

B3: Gda1p: N41D/N280D/N335D (protein)
parent chain: MAPIFRNYRFAIGAFAVIMLILLIKTSSIGPPSIARTVTPNASIPKTPEDISILPVNDEPGYLQDSKTEQNYPELADAVKSQTSQTCSEEHKYVIMIDAGSTGSRVHIYKFDVCTSPPTLLDEKFDMLEPGLSSFDTDSVGAANSLDPLLKVAMNYVPIKARSCTPVAVKATAGLRLLGDAKSSKILSAVRDHLEKDYPFPVVEGDGVSIMGGDEEGVFAWITTNYLLGNIGANGPKLPTAAVFDLGGGSTQIVFEPTFPINEKMVDGEHKFDLKFGDENYTLYQFSHLGYGLKEGRNKVNSVLVENALKDGKILKGDNTKTHQLSSPCLPPKVNATNEKVTLESKETYTIDFIGPDEPSGAQCRFLTDEILNKDAQCQSPPCSFNGVHQPSLVRTFKESNDIYIFSYFYDRTRPLGMPLSFTLNELNDLARIVCKGEETWNSVFSGIAGSLDELESDSHFCLDLSFQVSLLHTGYDIPLQRELRTGKKIANKEIGWCLGASLPLLKADNWKCKIQSA
- other: sporulation efficiency: no change

B4: Gda1p: N335D (protein)
parent chain: MAPIFRNYRFAIGAFAVIMLILLIKTSSIGPPSIARTVTPNASIPKTPEDISILPVNDEPGYLQDSKTEQNYPELADAVKSQTSQTCSEEHKYVIMIDAGSTGSRVHIYKFDVCTSPPTLLDEKFDMLEPGLSSFDTDSVGAANSLDPLLKVAMNYVPIKARSCTPVAVKATAGLRLLGDAKSSKILSAVRDHLEKDYPFPVVEGDGVSIMGGDEEGVFAWITTNYLLGNIGANGPKLPTAAVFDLGGGSTQIVFEPTFPINEKMVDGEHKFDLKFGDENYTLYQFSHLGYGLKEGRNKVNSVLVENALKDGKILKGDNTKTHQLSSPCLPPKVNATNEKVTLESKETYTIDFIGPDEPSGAQCRFLTDEILNKDAQCQSPPCSFNGVHQPSLVRTFKESNDIYIFSYFYDRTRPLGMPLSFTLNELNDLARIVCKGEETWNSVFSGIAGSLDELESDSHFCLDLSFQVSLLHTGYDIPLQRELRTGKKIANKEIGWCLGASLPLLKADNWKCKIQSA
- other: sporulation efficiency: no change
